Patent US9217011B2, “Non-natural proteinaceous scaffold made of three non-covalently associated peptides” (Complix NV, priority 2007, dated 2015)
Read-outs that look alike come from different tables or passages of the source.

Type: physicochemical
Conditions: for reversibility of thermal unfolding (up and down scan): CD signal as a function of temperature, about 1 degree Celsius per minute; for alpha-helical secondary structure from CD spectrum: 292 microM, pH 7.2
Procedure: The said synthesized peptide was dissolved at a concentration of 292 microM in 20 mM phosphate buffer (PBS), 150 mM NaCl, pH 7.2. The CD spectra were measured between […], at 5 and 90 degrees Celsius (FIG. 3).
To analyse whether the temperature-induced transition between helical and nonhelical states was reversible, a forward (up) and backward (down) thermal scan was performed on the same sample, by recording the CD signal at […] as a function of temperature at a scanning rate of about 1 degree Celsius per minute (FIG. 4).
It was further analyzed whether the thermal unfolding curve of FIG. 4 conformed to the thermodynamic equations describing the equilibrium folding/unfolding reaction between three molecules free (monomeric) peptide and one entity of folded (trimeric) complex. This reaction is generally written as 3 peptide <=> peptide3
[formula] [formula] [formula] and • T≡the temperature, in degrees Kelvin, of the sample • θ(T)≡the CD-signal [theta]222 nm, in deg cm^2 dmol^−1, as a function of T • θM(T)≡the CD-signal for 100% free (monomeric) peptide as a function of T • θT(T)≡the CD-signal for 100% associated (trimeric) peptide as a function of T • Tt≡the transition temperature, where 50% of the total peptide concentration is associated • ΔHt≡the enthalpy difference, in kJ per mole peptide, between mono- and trimeric states • ΔCp≡the heat capacity difference, in J mol^−1 K^−1, between mono- and trimeric states • R≡the ideal (universal) gas constant≡8.31 J mol^−1 K^−1
FIG. 5 represents fitting of a theoretic equation for trimeric association to experimental data. The experimental data are taken from FIG. 4, curve labeled “UP”. The theoretic equations used are listed supra. The fitted parameters (fitting results) are listed at the right in FIG. 5. “Transit. T” corresponds to Tt, but is expressed here in degrees Celsius. The parameter “delta Cp” was kept constant at 3.0 kJ mol^−1 K^−1. The parameters “thetaM(T)” and “thetaT(T)” were treated as linear functions of T, resulting in the white straight lines described by the respective offsets and slopes indicated at the right in the figure. “RMS Resid.” refers to the root-mean-square of the differences between experimental and theoretic data points. The fitted (theoretic) curve itself is plotted in white on the figure and coincides over the entire temperature range with the experimental data points shown in black.

Substance	thermal stability (in words)	reversibility of thermal unfolding (up and down scan)	temperature up to which the peptide did not quantitatively unfold (thermal CD scan) [degrees Celsius]	estimated transition temperature (thermal denaturation curve, same conditions as Example 3 (292 microM, 20 mM phosphate buffer, 150 mM NaCl, pH 7.2), transition incomplete)	alpha-helical secondary structure from CD spectrum (5 degrees Celsius)	alpha-helical secondary structure from CD spectrum (90 degrees Celsius)
Ac-MSIEEIQKQIAAIQKQIAAIQKQIYRMTP-NH2 [Q2aI]	extremely thermostable	full reversibility	≥ 95	around 97 degrees Celsius	–	–
Ac-MSIEEIQKQQAAIQKQIAAIQKQIYRMTP-NH2 [Q2a]	moderately stable	up and down scans almost perfectly coincided	–	–	high alpha-helical secondary structure content	greatly, but not completely, lost
